# Experimental data published in paper PMC10995880.
# Values joined by “and” are separate entries in the source; they are usually repeats but may differ in a detail not shown here. Equal entries are not always repeated. Where two headings read alike, the source gives them in different places.
# What was measured:
# [1] = molecular target: 2×Strep-SUMO-PEX26 (237-305aa) (UniProt Q7Z412)
# [2] = molecular target: PEX3 cytosolic domain (Homo sapiens) (UniProt P56589); conditions: cited from earlier work
# [3] = molecular target: His6-PEX19-αd4A (F125A, L129A, L133A, L136A), non-farnesylated (human) (UniProt P40855); test: cross-linking; UV crosslinking from Bpa at L264 of PEX26; purified PEX19·PEX26^Bpa complex chased with SGTA instead of CaM
# [4] = molecular target: His6-PEX19-WT (1–299 aa), non-farnesylated (human) (UniProt P40855); test: as above
# PEX19-WT proteins = test: cross-linking; UV crosslinking from Bpa at L264 of PEX26; purified PEX19·PEX26^Bpa complex (400 nM PEX19) chased with 20 μM CaM at room temperature in 20 mM K-HEPES pH 7.5, 150 mM CH3COOK, 1 mM Ca acetate, 1 mM DTT, 10% glycerol; frozen aliquots irradiated; anti-Strep blot; dissociation (%) = PEX26xCaM/(PEX26xPEX19 + PEX26xCaM)
# [5] = molecular target: His6-PEX19-αd4A (F125A, L129A, L133A, L136A), non-farnesylated (human) (UniProt P40855); test: as above
# PEX19-αd4A proteins = test: as above
# [6] = molecular target: farnesylated PEX19-WT (PEX19-WT^F) (human) (UniProt P40855); test: as above
# [7] = molecular target: His6-PEX19-WT (1–299 aa), non-farnesylated (human) (UniProt P40855); test: as above
# [8] = molecular target: PEX3 cytosolic domain (Homo sapiens) (UniProt P56589); conditions: cited from earlier work; remark: listed apart in the source
# Sequence of PEX3 cytosolic domain (Homo sapiens) (P56589 41-373): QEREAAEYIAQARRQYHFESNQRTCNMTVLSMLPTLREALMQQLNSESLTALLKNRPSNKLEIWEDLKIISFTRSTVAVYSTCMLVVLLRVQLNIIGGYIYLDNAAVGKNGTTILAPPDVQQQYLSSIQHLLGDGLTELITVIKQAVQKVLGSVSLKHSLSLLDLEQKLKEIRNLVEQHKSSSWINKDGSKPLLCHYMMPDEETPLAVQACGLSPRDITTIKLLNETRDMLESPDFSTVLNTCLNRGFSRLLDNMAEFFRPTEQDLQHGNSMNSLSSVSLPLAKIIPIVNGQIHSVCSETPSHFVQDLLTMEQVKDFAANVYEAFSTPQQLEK
# Sequence of 2×Strep-SUMO-PEX26 (237-305aa) (Q7Z412 237-305): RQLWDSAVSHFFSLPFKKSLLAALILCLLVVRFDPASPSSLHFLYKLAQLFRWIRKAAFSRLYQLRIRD
# Sequence of PEX19 αa peptide (P40855 14-33): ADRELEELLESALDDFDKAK
# Sequence of farnesylated PEX19-WT (PEX19-WT^F) (P40855 whole entry): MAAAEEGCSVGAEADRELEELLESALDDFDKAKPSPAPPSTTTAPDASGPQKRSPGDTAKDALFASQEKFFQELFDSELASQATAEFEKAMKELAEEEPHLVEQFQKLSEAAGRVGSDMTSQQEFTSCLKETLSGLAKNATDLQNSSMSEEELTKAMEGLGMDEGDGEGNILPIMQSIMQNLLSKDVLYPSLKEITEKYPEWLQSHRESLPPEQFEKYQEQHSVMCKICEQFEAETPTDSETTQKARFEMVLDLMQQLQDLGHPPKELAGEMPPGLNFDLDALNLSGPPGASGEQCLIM
# Sequence of His6-PEX19-WT (1–299 aa), non-farnesylated (P40855 whole entry, the tested form may be a part): as the sequence (P40855 whole entry) above
# Sequence of PEX19 (P40855 2-296): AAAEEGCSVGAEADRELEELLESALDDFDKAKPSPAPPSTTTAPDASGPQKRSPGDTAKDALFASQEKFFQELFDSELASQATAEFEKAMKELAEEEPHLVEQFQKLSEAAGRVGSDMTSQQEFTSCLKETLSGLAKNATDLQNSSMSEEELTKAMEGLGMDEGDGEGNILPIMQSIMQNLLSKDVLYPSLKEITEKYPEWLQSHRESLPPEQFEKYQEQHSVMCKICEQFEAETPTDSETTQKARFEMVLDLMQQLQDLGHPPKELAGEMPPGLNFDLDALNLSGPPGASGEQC
substance,measurement,setting,value
farnesylated PEX19-WT (PEX19-WT^F) (from UniProt P40855 1-299) (natural protein),turbidity assay (OD360): concentration of PEX19 for half-maximal solubilization of 1.5 μM PEX26 (K soluble),[1],0.72 µM
"His6-PEX19-WT (1–299 aa), non-farnesylated (from UniProt P40855 1-299) (natural protein)",turbidity assay (OD360): concentration of PEX19 for half-maximal solubilization of 1.5 μM PEX26 (K soluble),[1],1.71 µM
PEX19 (from UniProt P40855),Kd,[2],3.4 nM
2×Strep-SUMO-PEX26^Bpa (L264^Bpa) (from UniProt Q7Z412 237-305) (domain or fragment),PEX26 dissociation (%) within 10 min of SGTA chase,[3],> 40%
same,PEX26 dissociation (%) within 20 min of SGTA chase,[3],50%
same,PEX26 dissociation (%) within 80 min of SGTA chase,[4],< 4%
same,PEX26 dissociation (%) within 4 h of CaM chase,PEX19-WT proteins,20% and 30%
same,PEX26 dissociation (%) within 10 min of CaM chase,[5],70%
same,PEX26 dissociation (%) within 5 min of CaM chase,PEX19-αd4A proteins,60% and 80%
same,time to release ∼20% of PEX26 to CaM,[6],240 min
same,PEX26 dissociation (%) within 10 min of CaM chase,[7],16%
same,time to release ∼20% of PEX26 to CaM,[7],30 min and 40 min
PEX19 αa peptide (from UniProt P40855),Kd,[8],40.8 nM
